From the nanobody polyreactivity screen of Harvey et al. (2022)

Assay: yeast display, Sf9 membrane polyspecificity reagent, FACS + sequencing; frameworks hold sequencing errors
Method in brief: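 After 36–48 hours of galactose induction, yeast (Saccharomyces cerevisiae BJ5465) displaying a synthetic nanobody library were stained at 4 °C for 1 hour with 10% biotinylated, detergent-solubilized Sf9 membrane reagent. Streptavidin microbeads enriched the stained cells before FACS sorting into low and high (top ~1%) gates on anti-HA and streptavidin fluorescence. Each clone's polyreactivity label reflects its gate of origin.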

Row | Sequence | polyreactivity (PSR sort gate)
1 | QVQLVESGGGLVQAGGSLRLSCAASGSTFGIYSMGWYRQAPGKERELVAAISVRGGRTYYADSVKGRFTISRDNAKNTVYLQMNSLKPEDTAVYYCAPTWYWGNDYWGQGTQVTVSS | low polyreactivity
2 | QLHLVESGGGLVQAGGSLRLSCAASGIIFWYNDMGWYRQAPGKESELVAAISTGGSTNYADSVKGRFTISRDNAKNTVYLQMNSLKPEDTAVYYCAGDWHRAYGGYDYWGEGTQVTVSS | low polyreactivity
3 | QVQLVESGGGLVQAGGSLRLSCAASGRTFARYAMGWYRQAPWKERELVAAISRGGDSTYYADSVKGRFTISRDNAKNNVYLQMNSLKPEDTADYYCNAYVILALGYGGYDYWGQGTQVTVSS | high polyreactivity
4 | QVQLVESGGGLVQAGGSLRLSCAASGRTFVYYAMGWYRQAPGNERELVASISSGAGSPNYADSVKGRYTISRDNAKNTGYVQMNSLKPEDTAVYYCAVDTPRYRYYRTSYDYWRQGTQVTVSS | low polyreactivity
5 | QVQLVEAGGRLVQAGGSLRLSCAASGITFTYYAMGGYRQPPGKDMELVAAISWSGGSTDYADSVKGRFTISRDNAKNTVYLQMNSLKPEDTAFYYCAATFSRFAYYYWGQGTPVTVSS | high polyreactivity
6 | QVQLVDSGGGLVQAGGSLRLSCAASGSTFWYNAMGWYRQAPGKERELVAANSISDGNTYYADSVKGRFTISRDNAKNTVFLQMYSLKPEDTAVYYCNAGYWYDGPDYITEYDYWGQGTQVTVSS | low polyreactivity
7 | QVQLVESGGGLVQAGGSLRLSCAASGSTFFYYTMGWYRQAPGKERELVAAISRGGRTNYADSVKGRFTISRDNAKNTVYLLMNSLKREDTAVFYCIADAWSFRQYWGRYDYWGQGTQVTVSS | high polyreactivity
8 | QVQIVDSGGGLVQAGGSLRLSCAASGNIFAWYAMGWYTQAPGQVRELVAAINWSRGSTYYADSVKGRFTISRDNAKNTVYLQMNSLKPEDTAVYYCNAVFQDRTDDYDYWGQGTQVTLSS | low polyreactivity
9 | QVQLVESGGGLVQAGGSLRLSCAASGSILLRYAMGWYRQAPGKEWELVAAIRTIGASTYYADSVKGRFTISRYNAMITVYLQMNSLKPDDTAVYYCNAESASYWYRPGYDYWGQGNQVTVSS | low polyreactivity
10 | QVQLVESGGGLFHAGGSLRLSCAASGSTFSRNAMGWYIPAPGKEREFVAAISWSGSSTYYADSVKGRFTISRDNAKNTVYLQMNSLKPEDTAVYYCAARSYYDGFYYWGQGTQVTVSS | high polyreactivity
11 | QVQLVESGGGLVQAGGSLRLSCAASGRTIRAYTMGWYRQAPGNERELVAAISTPGGSTYYADSVKGRFTISRDNAKNTVYLQLNSLKPEDTAVYYCAADYGGPITGYEYWGQGTQVTVSS | low polyreactivity
12 | QVQLVESGGGLVQAGGSLRLSCAASGIIFPTYAMGWYRQAPGKERELVAAISVSGGTTSYADSVKGRFTISRDNAKNTVYLQMNSLKPEDTAVYYCAKRPFSTRYDYWGQGTQVTVSS | high polyreactivity
13 | QVQLVESGGGLVQAGGSLRLSCAASGRIFPYYDMGWYRQAPGKERELVAAITSSGSTFYADSVKGRFTISRDNAKNTVYLQMNSLKPEDTAVYYCNTRDIRVRPYDYWGQGTQVTVSS | low polyreactivity
14 | QVQLVESGGGLVQAGGSLRLSCAASGLIFYDNMGWYRQAPGKERELVAAISSSGGSTSYADSVKGRFTISRDNAKNTVYLQMNSLKPEDTAVYYCAAQYPAYYTNSYWGQGTQVTVSS | low polyreactivity
15 | QVQLEESGGGLVQAGGSLRLSCAASGSIFDSYARGWNSQAPVQERELVAAISRSGGRTYYADSVKGRFTISRDNAKNTVYLQMNSLKPEDTAVYYCNVVLGWWAPYFYTSGDYWGQGTQVTVSS | high polyreactivity
16 | QVQLVESGGGLVQAGGSLRLSCAPSGSIFGVYAMGWYRQAPGKERELVAAISSRGSSTYYADSVKGRFTISRDNAKNTVYLQMNSLKPEDTAVYYCAARPGIRSYPPGYGYWGQGTQVTVSS | high polyreactivity
17 | QVQLVESGGGLVHAGGSLRLSCAASGRTFATNTIGWYRQAPGKERELVAAITFSGGSTYYADSVKGRFTISRDTAKIPRYLQMNCLKPEDNEVYYCNVRSPYYSYRYRYGYWGQGSQVTVSS | high polyreactivity
18 | QVQLGESGGRLVQAGGSLRLSCAASGRTIVINAMGWYRKEPGKERELVAAISRGGSTNYADSVKGRFTISRDNAKNTVYLQMNRLKPEDTAVYYCKADYPNWWSPFDYWGQGTQVTVSS | low polyreactivity
19 | QVQLVESGGGLVQAGGSLRLSCAASGFTFRYYAMGWYRQAPGKERELVAAINSGDSTNYADSVKGRFTISRDNAKNTVYLQMNSLKPEDTAVYYCATRLWKIPGAMYYWGQGTQVTVSS | high polyreactivity
20 | QVQLLESGGGLVQAGGSLRLSCAASGRTFTGYVMGWYRQATGKERELVAGISRRGGRTYYADSVKGRFTISRDNAKNTVYLQMNSLKPEDTAVYYCAAAVTSSDPYDYWGQGTQVTVSS | high polyreactivity
21 | QVQLVESGGGLVQAGGSLRLSCAASGRIFYYYVMGWYRQAPGKERELVATITKRGGDTYYADSVKGRFTISRDNAKNTVYLQMNSLKPEDTAVYYCAAVYLYYSRSDLYDYWGQGTQVTVSS | low polyreactivity
22 | EVQLVESGGGLVQAGGSLRLSCAASGFFYPNNAMGWYRQAPGKERELVARISYGGGDTHYADSVKGRFTISRDNAKNTVYLQMNSLKPEDTAVYYCAVKDGQDDYWGQGTQVTVSS | low polyreactivity

Row | Sequence | polyreactivity (PSR sort gate)
23 | QVQLVESGGGLFQAGGSLRLSCAASGLTFNRYAMGWSRQAPGKERELVAAIDYSGGRTYYADSVKGRFTISRDYAKNTVYLQMNSLKPEDTAVFYCNALTRSVSRLLYDFWGQGSQVTVSS | high polyreactivity
24 | QVQLVESGGGLVHAGGSLRLSCAASGRLFYPYAMGWYRQAPGKERELVAAITYITGSTYADSVKGRFTISRDNAKNTVYLQMNSLKPEDTAVYYCAADYESGDYWGQGTQVTVSS | low polyreactivity
25 | QVQLVESGGGLDQAGGSLRLSCAASGFIFFQYAMGWYRQAPGKERELVAAISGSGVTTYYADSVKGRFTISRDNAKNTVYLQMNSLKPEDTAVYYCAADTPPYYAYWDVSFEYYYWGQGTQVTVSS | low polyreactivity
26 | QVQLVESGGGLVQTGGILRLSCAASGRIFYYNAMGWYRQEPGKERDFFAAITSSSGSSTYYADSVKGRFTISLDNAKNTVYLQMNSLKPEVTAVYYCAAVGTFIIRYLSRSSYWGQGTQVTVSS | low polyreactivity
27 | QVQLVESGGGLVQAGGSLRLSCAASGSTFTPYAMGWYRQAPGKERELVAAINGGGTRTYYADSVKGRFTISRDNAKNTVYLQMNSLKPEDTAVYYCAARTSTSRSYPYNYWGQGTQVTVSS | high polyreactivity
28 | QVQLVESGGGLVQAGGSLRLSCAASGLTLHGNAMGWYRQAPGKERELVATITSSGGSTFYADSVKGRFTISRDNAKNTVYLQMNSLKPEDTAVYYCNADAPYSDDYYVRFDYWGQGTQVTVSS | low polyreactivity
29 | QVQLVESGGGLVQAGGSLRLSCAASGRIFRWYAMGWYRQAPGKERELVASITWNGGSTYYADSVKGRFTISRDNAKNTVYLQMNSLKPEDTAVYYCAVAFYRGPEMGYWGQGTQVTVSS | high polyreactivity
30 | QVQLVESGGRLVQAGGSLRLSGAASGFTFGRNAKGWYRPAPGKERELVASIDWSGGSTYYADSVKGRFTISRDNAKNTFFLQMNSLKPEETAVYYCAVGPNSVGNRSYGFDYWGQGTQVTVSS | low polyreactivity
31 | QVQLVESGGGLVQAGGSLRLSCAASGFTFYYYAMGWYRQAPGKESELVAAITWSGDITSYADSVKGRFTISRDNAKNTVYLQMNSLKPEDTAVYYCAAYVYVPGYNAAYDYWGQGTQVTVSS | low polyreactivity
32 | QVQLVESGGGLVQAGGSLRLSCDASGRIYEVYAMGWYRRAPGKERELVAAISADGTITSYADSVKGRFTISRDNAKNNVYLQMNSLKPEDTAVYYCNADPRFRGDYWGQGTQVTVSS | high polyreactivity
33 | QVQLVESGGGLVQAGGSLRLSCAASGIIFYYYAMGWYRHAPGKERELVAAISTSGTRTFYADSVKGRFTISRDNAKNTVYLQMNCLKPEDTAVYYCAARIYKPQRSSSLYRTSGYWGQGTQVTVSS | high polyreactivity
34 | QVQLVESGGGLVQAGGSLRLSCAASGNNFYVNVMGSYRQAPGKEMEFVAAISTRGVSTSYADSVKGRFTISRDNAKYTVYLQMNSLKPEDTAVYYCAASFRRPQPKGTTYGYLGQGTQVTVSS | high polyreactivity
35 | QVQLVESGGGLVQAGGSLRLSCAASGRIFGRYAMGWYRQAPGKERELVAAISSGTSTNYADSVKGRFTISRDNAKNTVYLQMNSLKPEDTAVYYCAVVLYRHWWYDYWGQGTQVTVSS | high polyreactivity
36 | QVQLVESGGGLVQAGGSLRLSCAASGYIFNSNTMGWYRPAPGKERELVAAITSSGGRTNYADSVKGRFTISRDNAKNTVYLQMNSLKPEDTAVYYCATRVYYRAGRYKYDYWGQGTQVTVSS | high polyreactivity
37 | QVQHVESRGGLVQAGGSLRLICAASGFTFSSYAMGWYRQAPGKERELVASISWRGGIPYYADSVKGRFTISRDNAKNTVDLQMISLKPEDTAVYYCAAVPSYHSTSPFYYWGQGTQVTVSS | high polyreactivity
38 | QVQLVESGGGLVQAGGSLRLSCAASGLIFSWYAMGWYRQAPGKERELVAAISSGSSTNYADSVKGRFTISRDNAKNTVYLQRNSLKPEDTAVYYCAARIYYTSRLRMYYWGQGTQVTVSS | high polyreactivity
39 | QVQLVESGGGLVQAGGSLRLSCAASGSIFEGYVMGWYRQEPGKERELVATISFSGGSTYYADSVKGRFTISRDNAKTTVYLQMNSLKPEDTAVYYCNALVYHTKGDYGYWGQGTQVTVSS | low polyreactivity
40 | QVQLVESGGGLVQAGRSLRLICAASGRILGGNTMGWYRQAPGKERELVAGISYSGGRTYYADSVQRRFTISRDNAKHTFYLQMNSLKPEDTAVYYCNVPLGRGRKIAYGYWGQGTQVTVSS | high polyreactivity
41 | QDLLVDSGGGLVQAGGSLRVSCAASGYTRFYAMGWYRQAPGKERELVAAISSSGGTTYYADSVKGRFTISRDNAKNNVYLQMNSLKPEDTAVYYCAKFLSYSRTLYDYWGQGTQVTVSS | high polyreactivity
42 | QVQLVESGGGLVQAGGSLRLSCAASGRIFLRYAMGWYRQAPGKERELVAVITWSGGSTNYADSVKGRFTISRDNAKNTVYLQMNSLKREDTAVYYCAVDNTGRSWPYDYWGQGTQVTVSS | low polyreactivity
43 | QVQLVESGGGLVQAGGSLRLSCAASGSTFGYNAMGWYRQAPGKERELVADITWRGGRTYYADSVKGRFTISRDNAKNTVYLQMNSLKPEDTAVYYCAATSRGSGQRPGEAIIDYYYWGLGTQVTVSS | high polyreactivity
